Values joined by “and” are separate entries in the source; they are usually repeats but may differ in a detail not shown here. Identical values can stand only once.

Usually stoichiometry N stands for the number of molecules, sites or subunits per partner or assembly.

The target in assay [1] is ErCry4a C317A (European robin (Erithacus rubecula)). The experiment in a line: native MS.
Assay [2] has as its target ErCry4a C412A (European robin (Erithacus rubecula)). In words: native MS.
For assay [3], the target named is ErCry4a C412A+C317A (European robin (Erithacus rubecula)). The experiment in a line: native MS.
Assay [4] deals with European robin cryptochrome 4a, wild type, with N-terminal 10xHis-tag (European robin (Erithacus rubecula)). The experiment in a line: native MS.
For assay [5] the target is unchanged. The experiment in a line: mass photometry.
For assay [6] the target is unchanged. In words: native MS. This is another data set of the same source.

As to ErCry4a C317A (natural protein), in assay [1], the stoichiometry N was 2 and 3.

Take ErCry4a C412A (natural protein): the stoichiometry N in assay [2] is 2 and 3.

On to ErCry4a C412A+C317A (natural protein), for which, in assay [3], the stoichiometry N was 2 and 3.

Turning to “European robin cryptochrome 4a, wild type, with N-terminal 10xHis-tag (natural protein)”, the stoichiometry N in assay [4] is 2; in assay [5] it was 2; in assay [6], 3. For the same substance, in assay [5], the percent of counts in the dimer peak came out at 11%.

The record behind these values is paper doi:10.1101/2023.04.11.536350.
